The text below walks through data of paper PMC11188170, “A comprehensive analysis of the WRKY family in soybean and functional analysis of GmWRKY164-GmGSL7c in resistance to soybean mosaic virus”.

The data set concerns the target GmWRKY164 (Glycine max, UniProt K7MND9 1-149). Put plainly: EMSA; 6 ug protein; 200-fold unlabelled probe used as competitor; LightShift Chemiluminescent EMSA kit binding reaction, 20 min, 6% native PAGE; buffer, salt, pH and temperature not stated. Conditions: protein: recombinant; tags: His; label: 5' biotin; blunt. (In general: In EMSA bound probe runs differently from free probe, usually more slowly.)

Sequence of GmWRKY164 (K7MND9 entry or part of it): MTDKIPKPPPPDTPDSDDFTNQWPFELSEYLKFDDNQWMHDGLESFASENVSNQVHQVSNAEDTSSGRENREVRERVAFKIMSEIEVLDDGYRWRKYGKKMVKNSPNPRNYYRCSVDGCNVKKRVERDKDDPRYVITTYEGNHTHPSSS

B1: GmGSL7c promoter W-box probe (dsDNA)
DNA 1: TAGCCCAACTCATCAGAAGAAGGTCAATGTAATAGTA
DNA 2: TACTATTACATTGACCTTCTTCTGATGAGTTGGGCTA
With B1, the binding result was “binds”.
